Target: plk1_human PLK1 (UniProt P53350)
Sequence (P53350 whole entry): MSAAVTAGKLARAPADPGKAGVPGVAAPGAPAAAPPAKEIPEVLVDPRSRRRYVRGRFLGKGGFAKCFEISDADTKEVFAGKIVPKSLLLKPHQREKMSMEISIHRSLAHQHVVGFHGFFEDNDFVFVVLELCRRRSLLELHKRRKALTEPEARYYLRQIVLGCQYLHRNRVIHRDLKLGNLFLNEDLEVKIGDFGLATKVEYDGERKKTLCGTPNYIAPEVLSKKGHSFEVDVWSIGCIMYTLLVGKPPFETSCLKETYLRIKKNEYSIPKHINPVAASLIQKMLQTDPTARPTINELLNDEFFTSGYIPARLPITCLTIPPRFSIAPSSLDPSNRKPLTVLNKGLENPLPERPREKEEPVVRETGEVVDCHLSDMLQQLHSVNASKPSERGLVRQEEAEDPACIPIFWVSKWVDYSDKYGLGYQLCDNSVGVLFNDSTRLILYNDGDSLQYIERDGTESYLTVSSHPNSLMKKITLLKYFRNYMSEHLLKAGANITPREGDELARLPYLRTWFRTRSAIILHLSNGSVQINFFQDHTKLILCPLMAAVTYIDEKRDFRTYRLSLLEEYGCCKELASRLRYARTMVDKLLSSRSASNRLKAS

effect of a mutation on the interaction: disrupting interaction strength
Substance: RecQ-like DNA helicase BLM (Homo sapiens), P54132 S144A;S304A;S1290A;S1296A

— IntAct's records for PubMed 16864798
